As a reminder, the Kd is the equilibrium constant for the complex coming apart.

Here are results for seven sequences from the Immune Epitope Database (IEDB).

In one assay the target is HLA-A*01:01. Briefly: IEDB peptide-MHC binding, purified MHC/direct/fluorescence; filed as Kd, often an IC50 or EC50 that approximates it; ≥ and ≤ were set here for values at or beyond the usual limits of such assays.
The target in assay [1] is HLA-A*02:01. Described as above.
The target of another assay is HLA-A*03:01. The description is as above. The following applies: source organism: Corynebacterium glutamicum.
Assay [2] addresses HLA-A*11:01. The description is as above. The following applies: source organism: Corynebacterium glutamicum.
In assay [3] the target is HLA-A*26:01. The description is as above. Particulars: source organism: Corynebacterium glutamicum.
Assay [4] concerns the target HLA-A*31:01. Described as above. The following applies: source organism: Corynebacterium glutamicum.
The next assay has as its target HLA-A*69:01. The assay is described as above.
The next assay deals with HLA-B*07:02. The assay is described as above.
Another assay has as its target HLA-B*08:01. The description is as above.
Assay [5] concerns the target HLA-B*15:01. The assay is described as above.
The target of assay [6] is HLA-B*27:05. Described as above.
Assay [7] addresses HLA-B*40:01. The assay is described as above. The following applies: source organism: Corynebacterium glutamicum.
A further assay concerns the target HLA-B*58:01. The description is as above.
The next assay deals with HLA-A*02:03. Briefly: IEDB peptide-MHC binding, purified MHC/competitive/fluorescence; filed as Kd, often an IC50 or EC50 that approximates it; ≥ and ≤ were set here for values at or beyond the usual limits of such assays.
A further assay deals with HLA-A*02:06. The description is as above.
A further assay has as its target HLA-A*02:11. The description is as above.
For the next assay, the target named is HLA-A*02:12. Described as above. The following applies: source organism: Corynebacterium glutamicum ATCC 13032.
The next assay deals with HLA-A*02:50. Described as above. Particulars: source organism: Corynebacterium glutamicum ATCC 13032.
A further assay addresses HLA-C*15:02. Briefly: IEDB peptide-MHC binding, purified MHC/direct/fluorescence; filed as Kd, often an IC50 or EC50 that approximates it; ≥ and ≤ were set here for values at or beyond the usual limits of such assays. Particulars: source organism: Encephalitozoon cuniculi GB-M1.
A further assay concerns the target HLA-A*24:02. Briefly: IEDB peptide-MHC binding, purified MHC/competitive/fluorescence; filed as Kd, often an IC50 or EC50 that approximates it; ≥ and ≤ were set here for values at or beyond the usual limits of such assays.
The next assay deals with HLA-A*68:02. Briefly: IEDB peptide-MHC binding, purified MHC/direct/fluorescence; filed as Kd, often an IC50 or EC50 that approximates it; ≥ and ≤ were set here for values at or beyond the usual limits of such assays. Particulars: source organism: Marburg virus - Musoke, Kenya, 1980.
For a further assay, the target named is HLA-B*15:02. The assay is described as above.
For a further assay, the target named is HLA-B*15:17. Described as above. The following applies: source organism: Marburg virus - Musoke, Kenya, 1980.
Another assay has as its target HLA-B*46:01. Described as above.
The next assay addresses HLA-B*48:01. The assay is described as above. The following applies: source organism: Marburg virus - Musoke, Kenya, 1980.
The target of a further assay is HLA-B*57:01. Described as above. Particulars: source organism: Marburg virus - Musoke, Kenya, 1980.
Assay [8] concerns the target HLA-A*02:01. Put plainly: IEDB peptide-MHC binding, purified MHC/competitive/fluorescence; filed as Kd, often an IC50 or EC50 that approximates it; ≥ and ≤ were set here for values at or beyond the usual limits of such assays.
Assay [9] deals with HLA-A*11:01. The assay is described as above. The following applies: source organism: Orthomarburgvirus marburgense.
Assay [10] concerns the target HLA-A*26:01. The description is as above. The following applies: source organism: Orthomarburgvirus marburgense.
A further assay has as its target HLA-A*30:01. The description is as above. Particulars: source organism: Orthomarburgvirus marburgense.
The target in assay [11] is HLA-A*31:01. Described as above. Particulars: source organism: Orthomarburgvirus marburgense.
Assay [12] has as its target HLA-B*40:01. The description is as above. The following applies: source organism: Escherichia coli B7A.
The next assay addresses HLA-C*07:02. Briefly: IEDB peptide-MHC binding, purified MHC/direct/fluorescence; filed as Kd, often an IC50 or EC50 that approximates it; ≥ and ≤ were set here for values at or beyond the usual limits of such assays. Particulars: source organism: Salmonella enterica subsp. enterica serovar Typhi str. CT18.
The next assay concerns the target HLA-A*32:07. Briefly: IEDB peptide-MHC binding, purified MHC/competitive/fluorescence; filed as Kd, often an IC50 or EC50 that approximates it; ≥ and ≤ were set here for values at or beyond the usual limits of such assays. Particulars: source organism: Salmonella enterica subsp. enterica serovar Typhi.
For assay [13], the target named is HLA-B*15:01. Described as above. The following applies: source organism: Salmonella enterica subsp. enterica serovar Typhi.
Another assay concerns the target HLA-B*15:42. Described as above. Particulars: source organism: Salmonella enterica subsp. enterica serovar Typhi.
In assay [14] the target is HLA-B*27:05. The assay is described as above. Particulars: source organism: Salmonella enterica subsp. enterica serovar Typhi.
The next assay deals with HLA-B*27:20. The description is as above. Particulars: source organism: Salmonella enterica subsp. enterica serovar Typhi.
The target of the next assay is HLA-B*39:01. The assay is described as above. Particulars: source organism: Salmonella enterica subsp. enterica serovar Typhi.
In the next assay the target is HLA-B*40:13. The assay is described as above. Particulars: source organism: Salmonella enterica subsp. enterica serovar Typhi.
A further assay addresses HLA-B*45:06. The assay is described as above. The following applies: source organism: Salmonella enterica subsp. enterica serovar Typhi.
For another assay, the target named is HLA-B*83:01. Described as above. The following applies: source organism: Salmonella enterica subsp. enterica serovar Typhi.
Another assay has as its target HLA-A*30:02. Briefly: IEDB peptide-MHC binding, purified MHC/competitive/radioactivity; filed as Kd, often an IC50 or EC50 that approximates it; ≥ and ≤ were set here for values at or beyond the usual limits of such assays. Particulars: source organism: Dengue virus 3 Martinique/1243/1999.
The mark [15] stands for this setting: source organism: Corynebacterium glutamicum.
Where [16] appears, read: source organism: Corynebacterium glutamicum ATCC 13032.
Setting [17] is: source organism: Marburg virus - Musoke, Kenya, 1980.
Where [18] appears, read: source organism: Ravn virus - Ravn, Kenya, 1987.
Setting [19] is: source organism: Orthomarburgvirus marburgense.
[20] abbreviates: source organism: Salmonella enterica subsp. enterica serovar Typhi.
Setting [21] is: source organism: dengue virus type 3.
[22] abbreviates: source organism: Haemophilus influenzae.

Consider FLPGQYMNI, for which the Kd was not below 20000 nM in the assay with HLA-A*01:01 (setting [15]); 72.8 nM in the assay with HLA-A*02:01 [1] (setting [15]); not below 20000 nM in the assay with HLA-A*03:01; not below 20000 nM with HLA-A*11:01 [2]; not below 20000 nM in the assay with HLA-A*26:01 [3]; not below 20000 nM with HLA-A*31:01 [4]. Also, the Kd was 404 nM with HLA-A*69:01 (setting [15]); not below 20000 nM with HLA-B*07:02 (setting [15]); not below 20000 nM in the assay with HLA-B*08:01 (setting [15]); not below 20000 nM with HLA-B*15:01 [5] (setting [15]); not below 20000 nM with HLA-B*27:05 [6] (setting [15]); not below 20000 nM with HLA-B*40:01 [7]. Also, the dissociation constant (Kd) was not below 20000 nM with HLA-B*58:01 (setting [15]); not above 0.1 nM with HLA-A*02:03 (setting [16]); not above 0.1 nM in the assay with HLA-A*02:06 (setting [16]); not above 0.1 nM in the assay with HLA-A*02:11 (setting [16]); not above 0.1 nM with HLA-A*02:12; not above 0.1 nM with HLA-A*02:50.
As to TTLSIYFLL, the Kd with HLA-C*15:02 was 3660 nM; with HLA-A*24:02 (source organism: Encephalitozoon cuniculi GB-M1), 86.6 nM.
ALFHKVQSY: the Kd was not below 20000 nM with HLA-A*01:01 (setting [17]); not below 20000 nM with HLA-A*68:02; not below 20000 nM with HLA-A*69:01 (setting [17]); not below 20000 nM with HLA-B*07:02 (setting [17]); not below 20000 nM with HLA-B*08:01 (setting [18]); 20.5 nM with HLA-B*15:01 [5] (setting [17]). The Kd is 38 nM with HLA-B*15:02 (setting [18]); 4.6 nM in the assay with HLA-B*15:17; not below 20000 nM in the assay with HLA-B*27:05 [6] (setting [17]); not below 20000 nM with HLA-B*46:01 (setting [17]); not below 20000 nM in the assay with HLA-B*48:01; not below 20000 nM with HLA-B*57:01. The Kd with HLA-B*58:01 (setting [17]) was not below 20000 nM; with HLA-A*02:01 [8] (setting [19]), 1310 nM; with HLA-A*02:03 (setting [19]), 1560 nM; with HLA-A*11:01 [9], 1940 nM; with HLA-A*26:01 [10] it was 1140 nM; with HLA-A*30:01 it was 438 nM. The Kd with HLA-A*31:01 [11] came out at 3920 nM.
With GEHVPEIIL, the Kd with HLA-B*40:01 [12] amounted to 1.7 nM.
Consider KQLELFWVI, for which the Kd with HLA-C*07:02 is not below 20000 nM; with HLA-A*02:01 [8] (setting [20]), not above 1 nM; with HLA-A*24:02 (setting [20]), 0.2 nM; in the assay with HLA-A*32:07, 1.1 nM; in the assay with HLA-B*15:01 [13], 497 nM; with HLA-B*15:42, 2470 nM. Further, the Kd with HLA-B*27:05 [14] was 66.1 nM; with HLA-B*27:20, 1.3 nM; with HLA-B*39:01, 6 nM; in the assay with HLA-B*40:13, 4.2 nM; with HLA-B*45:06 it was 833 nM; with HLA-B*83:01 it was not below 5000 nM.
As to KQIANELNY, the dissociation constant Kd with HLA-B*15:02 (setting [21]) was not below 20000 nM; in the assay with HLA-B*46:01 (setting [21]) it was not below 20000 nM; in the assay with HLA-A*30:02, not below 76900 nM.
As for YINMAWNLV, the dissociation constant (Kd) with HLA-A*01:01 (setting [22]) is 625 nM; with HLA-A*02:01 [1] (setting [22]), 135 nM; in the assay with HLA-A*69:01 (setting [22]), 639 nM; with HLA-A*02:06 (setting [22]), not above 0.1 nM; with HLA-A*02:11 (setting [22]), not above 0.1 nM.
